Experimental data from the supplement of paper PMC10724198.
± gives the standard deviation of the averaged measurements.

How the values were obtained:
[1] = system: Saccharomyces cerevisiae; assay: protein stability index of tFT-peptide fusion (C-terminal peptide) (PSI (0-1 scale)); higher = more stable (slower turnover)
Experimental: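 MPS profiling in S. cerevisiae of the tFT-X12 degron library: putative degron peptides plus stable controls, 12 aa, fused to the C-terminus of a sfGFP-mCherry timer. Cells are FACS-sorted into 8 mCherry/sfGFP bins and deep-sequenced. PSI runs from 0 (unstable) to 1 (stable). Backgrounds are wild type, das1Δ and doa10Δ at 30 °C, and wild type, das1Δ, cdc34-1 and cdc53-1 at 37 °C; 2-3 technical replicates each.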

[2] = system: Saccharomyces cerevisiae; assay: as above; details: genetic background: wild type; temperature: 30 C
[3] = genetic background: cdc34-1, temperature: 37 C
[4] = genetic background: cdc53-1, temperature: 37 C
[5] = genetic background: das1 deletion, temperature: 30 C
[6] = genetic background: das1 deletion, temperature: 37 C
[7] = genetic background: doa10 deletion, temperature: 30 C
[8] = genetic background: wild type, temperature: 30 C
[9] = genetic background: wild type, temperature: 37 C
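Further: PSI is a weighted mean of sequencing reads over stability bins, variants kept only with over 10 reads, mCherry proximal and sfGFP distal, peptide attached via GGGS linker.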

Sequence | protein stability index [1, 3] | protein stability index [1, 4] | protein stability index [1, 5] | protein stability index [1, 6] | protein stability index [1, 7] | protein stability index [1, 8] | protein stability index [1, 9] | protein stability index [2]
RIHRRLIKNKRV | 0.649 ± 0.021 | 0.7 ± 0.02 | 0.71 ± 0.036 | 0.739 ± 0.041 | 0.155 ± 0.028 | 0.156 ± 0.038 | 0.377 ± 0.023 | 0.162 ± 0.086
TDSSWEVSLMVG | 0.679 ± 0.051 | 0.747 ± 0.036 | 0.612 ± 0.012 | 0.733 ± 0.016 | 0.605 ± 0.023 | 0.6186 ± 0.0039 | 0.741 ± 0.026 | 0.374 ± 0.053
VYKSTHKIYILT | 0.609 ± 0.011 | 0.729 ± 0.023 | 0.53 ± 0.011 | 0.6774 ± 0.0066 | 0.318 ± 0.0091 | 0.364 ± 0.028 | 0.5493 ± 0.0012 | 0.45 ± 0.022
VLYWTGTLFVSL | 0.208 ± 0.00082 | 0.355 ± 0.0038 | 0.218 ± 0.017 | 0.426 ± 0.0064 | 0.195 ± 0.019 | 0.233 ± 0.028 | 0.424 ± 0.038 | 0.307 ± 0.035
CILYLSWIIFRA | 0.161 ± 0.037 | 0.192 ± 0.011 | 0.198 ± 0.041 | 0.343 ± 0.0091 | 0.213 ± 0.034 | 0.174 ± 0.028 | 0.334 ± 0.068 | 0.146 ± 0.026
LEGLLIRVYITF | 0.105 ± 0.034 | 0.234 ± 0.021 | 0.178 ± 0.019 | 0.3361 ± 0.00094 | 0.151 ± 0.017 | 0.173 ± 0.02 | 0.305 ± 0.0093 | 0.288 ± 0.014
CSRVVGLFFLVV | 0.5355 ± 0.0037 | 0.62 ± 0.019 | 0.427 ± 0.04 | 0.649 ± 0.042 | 0.371 ± 0.0081 | 0.413 ± 0.033 | 0.604 ± 0.016 | 0.432 ± 0.033
SFSRLWSLFRCL | 0.462 ± 0.041 | 0.68 ± 0.026 | 0.682 ± 0.014 | 0.752 ± 0.014 | 0.15 ± 0.0057 | 0.13 ± 0.036 | 0.31 ± 0.038 | 0.244 ± 0.00058
FLPLLFFFFFRF | 0.377 ± 0.0075 | 0.292 ± 0.0066 | 0.391 ± 0.037 | 0.4846 ± 0.0032 | 0.569 ± 0.012 | 0.403 ± 0.022 | 0.479 ± 0.023 | 0.485 ± 0.008
VRMVIFSSVYLT | 0.462 ± 0.002 | 0.509 ± 0.03 | 0.362 ± 0.033 | 0.533 ± 0.0036 | 0.256 ± 0.008 | 0.26 ± 0.027 | 0.448 ± 0.02 | 0.309 ± 0.0098
PLFFGVQAFGGV | 0.727 ± 0.026 | 0.79052 ± 0.0004 | 0.664 ± 0.029 | 0.7644 ± 0.0042 | 0.669 ± 0.033 | 0.679 ± 0.014 | 0.7622 ± 0.0021 | 0.7335 ± 0.0045
VCCYILFFLFPV | 0.401 ± 0.0048 | 0.522 ± 0.008 | 0.349 ± 0.025 | 0.568 ± 0.024 | 0.322 ± 0.0058 | 0.337 ± 0.026 | 0.506 ± 0.018 | 0.418 ± 0.011
FGALVVCFLTRC | 0.426 ± 0.039 | 0.511 ± 0.056 | 0.342 ± 0.027 | 0.519 ± 0.007 | 0.289 ± 0.02 | 0.302 ± 0.04 | 0.481 ± 0.027 | 0.374 ± 0.026
TLKRCFRWCRTT | 0.492 ± 0.095 | 0.71 ± 0.05 | 0.672 ± 0.018 | 0.699 ± 0.0095 | 0.105 ± 0.0068 | 0.11 ± 0.011 | 0.157 ± 0.031 | 0.176 ± 0.0047
VAVFFFCRVFFL | 0.248 ± 0.062 | 0.339 ± 0.005 | 0.221 ± 0.037 | 0.412 ± 0.0042 | 0.186 ± 0.02 | 0.211 ± 0.024 | 0.318 ± 0.04 | 0.289 ± 0.026
VSLLVFVVSSRV | 0.345 ± 0.034 | 0.418 ± 0.0047 | 0.262 ± 0.031 | 0.476 ± 0.016 | 0.223 ± 0.0068 | 0.255 ± 0.022 | 0.444 ± 0.013 | 0.3816 ± 0.0022
LLSYMVSLVVYL | 0.127 ± 0.04 | 0.231 ± 0.03 | 0.175 ± 0.032 | 0.338 ± 0.024 | 0.16 ± 0.028 | 0.166 ± 0.031 | 0.291 ± 0.004 | 0.295 ± 0.0062
FCICRFLFIFLG | 0.44 ± 0.018 | 0.463 ± 0.012 | 0.358 ± 0.033 | 0.4917 ± 0.0036 | 0.3325 ± 0.0029 | 0.294 ± 0.029 | 0.411 ± 0.0063 | 0.336 ± 0.049
YRNVLLVLNYWS | 0.447 ± 0.076 | 0.368 ± 0.029 | 0.428 ± 0.031 | 0.544 ± 0.0087 | 0.518 ± 0.0072 | 0.406 ± 0.022 | 0.51 ± 0.026 | 0.491 ± 0.0064
CGGVQVWRVKVV | 0.657 ± 0.023 | 0.715 ± 0.012 | 0.605 ± 0.011 | 0.722 ± 0.0077 | 0.18 ± 0.016 | 0.221 ± 0.018 | 0.401 ± 0.0066 | 0.3403 ± 0.002

Sequence | protein stability index [1, 3] | protein stability index [1, 4] | protein stability index [1, 5] | protein stability index [1, 6] | protein stability index [1, 7] | protein stability index [1, 8] | protein stability index [1, 9] | protein stability index [2]
CLLDVVMVVERG | 0.384 ± 0.055 | 0.432 ± 0.0095 | 0.347 ± 0.032 | 0.4016 ± 0.0028 | 0.364 ± 0.035 | 0.347 ± 0.016 | 0.392 ± 0.0043 | 0.365 ± 0.012
LVPVWVGLRVLF | 0.422 ± 0.021 | 0.429 ± 0.0053 | 0.354 ± 0.042 | 0.537 ± 0.015 | 0.347 ± 0.018 | 0.328 ± 0.022 | 0.506 ± 0.014 | 0.421 ± 0.065
LFLVLFCVVGFV | 0.234 ± 0.036 | 0.311 ± 0.031 | 0.226 ± 0.027 | 0.377 ± 0.0076 | 0.222 ± 0.0075 | 0.219 ± 0.02 | 0.337 ± 0.011 | 0.282 ± 0.0047
GQSRLVADLRQV | 0.635 ± 0.055 | 0.6934 ± 0.0012 | 0.646 ± 0.012 | 0.678 ± 0.018 | 0.676 ± 0.035 | 0.676 ± 0.0081 | 0.675 ± 0.025 | 0.7147 ± 0.00089
RDASLLFHFFVC | 0.507 ± 0.059 | 0.727 ± 0.014 | 0.614 ± 0.012 | 0.726 ± 0.011 | 0.0833 ± 0.018 | 0.0965 ± 0.0056 | 0.143 ± 0.015 | 0.199 ± 0.0058
TNEWMDVKVFCY | 0.668 ± 0.0073 | 0.701 ± 0.052 | 0.499 ± 0.049 | 0.676 ± 0.0097 | 0.449 ± 0.028 | 0.486 ± 0.04 | 0.6398 ± 0.0051 | 0.491 ± 0.088
GLGLIRTSRLLC | 0.609 ± 0.008 | 0.695 ± 0.026 | 0.627 ± 0.02 | 0.718 ± 0.0034 | 0.148 ± 0.027 | 0.186 ± 0.029 | 0.296 ± 0.027 | 0.278 ± 0.037
PFARIIDILLVI | 0.486 ± 0.022 | 0.5346 ± 0.0045 | 0.404 ± 0.042 | 0.5395 ± 0.00065 | 0.298 ± 0.0017 | 0.315 ± 0.022 | 0.495 ± 0.061 | 0.41 ± 0.026
SWMFKLCIQWNV | 0.5147 ± 0.0019 | 0.567 ± 0.023 | 0.502 ± 0.011 | 0.5321 ± 0.00098 | 0.467 ± 0.029 | 0.456 ± 0.013 | 0.49 ± 0.019 | 0.467 ± 0.012
SWGEQDRLTGYI | 0.715 ± 0.029 | 0.77 ± 0.02 | 0.689 ± 0.024 | 0.787 ± 0.0083 | 0.669 ± 0.018 | 0.674 ± 0.026 | 0.712 ± 0.023 | 0.7195 ± 0.0031
LLRIFLPLLYLL | 0.203 ± 0.062 | 0.199 ± 0.011 | 0.329 ± 0.037 | 0.387 ± 0.016 | 0.218 ± 0.0076 | 0.131 ± 0.021 | 0.2 ± 0.00044 | 0.194 ± 0.019
PTYSCSIKIQAH | 0.539 ± 0.037 | 0.537 ± 0.037 | 0.407 ± 0.03 | 0.5503 ± 0.0049 | 0.339 ± 0.01 | 0.366 ± 0.022 | 0.517 ± 0.02 | 0.427 ± 0.031
FFVMVFTVEVFV | 0.0407 ± 0.015 | 0.0863 ± 0.019 | 0.0929 ± 0.015 | 0.167 ± 0.01 | 0.0639 ± 0.011 | 0.0875 ± 0.015 | 0.132 ± 0.0075 | 0.194 ± 0.02
RLVPFMAVRVLF | 0.571 ± 0.034 | 0.6204 ± 0.0016 | 0.517 ± 0.013 | 0.6492 ± 0.0023 | 0.413 ± 0.025 | 0.41 ± 0.018 | 0.5719 ± 0.0024 | 0.487 ± 0.044
PPQDQAPVGVND | 0.672 ± 0.041 | 0.7509 ± 0.0024 | 0.619 ± 0.019 | 0.74 ± 0.0071 | 0.623 ± 0.03 | 0.644 ± 0.038 | 0.7007 ± 0.0022 | 0.474 ± 0.064
VVPWLGYVSCFS | 0.452 ± 0.031 | 0.487 ± 0.027 | 0.357 ± 0.029 | 0.521 ± 0.0067 | 0.324 ± 0.0094 | 0.366 ± 0.032 | 0.5026 ± 0.0044 | 0.465 ± 0.041
VLSCVWFVVVGV | 0.247 ± 0.013 | 0.316 ± 0.034 | 0.245 ± 0.028 | 0.441 ± 0.019 | 0.202 ± 0.0034 | 0.22 ± 0.033 | 0.4017 ± 0.0016 | 0.3596 ± 0.00083
AVCVVVMAVFVG | 0.339 ± 0.056 | 0.4098 ± 0.0026 | 0.297 ± 0.028 | 0.417 ± 0.012 | 0.293 ± 0.022 | 0.3 ± 0.012 | 0.397 ± 0.021 | 0.3646 ± 0.0028
LFKFCLGIPLFL | 0.51 ± 0.026 | 0.522 ± 0.029 | 0.412 ± 0.037 | 0.576 ± 0.006 | 0.4179 ± 0.004 | 0.402 ± 0.029 | 0.559 ± 0.014 | 0.479 ± 0.038
